The source of these data is PMC8163987.

This test deals with cytoplasmic region of YhcB from Haemophilus ducreyi (residues 31 to 128) with I51M and L72M mutations (Haemophilus ducreyi) (UniProt Q7VLF5). The experiment in a line: crystal structure; microbatch under paraffin oil, 2.0 M ammonium sulfate; SAD phasing of selenomethionine-labeled protein; 2.8 Å.

Usually stoichiometry N stands for the number of molecules, sites or subunits per partner or assembly.

The substance “cytoplasmic region of YhcB from Haemophilus ducreyi (residues 31 to 128) with I51M and L72M mutations (from UniProt Q7VLF5 31-128) (domain or fragment)” displayed a stoichiometry N of 4.
